Assay [1] has as its target Type I IFN receptor (IFNAR1 and IFNAR2) on HEK-Blue 293 reporter cells (UniProt P17181). In words: cell-based or functional assay.
Assay [2] addresses Type II IFN receptor (IFNGR1 and IFNGR2) on HEK-Blue 293 reporter cells (UniProt P15260). In words: cell-based or functional assay.

Sequence of Type I IFN receptor (IFNAR1 and IFNAR2) on HEK-Blue 293 reporter cells (P17181 28-557 limits assumed, chain 1 of 2): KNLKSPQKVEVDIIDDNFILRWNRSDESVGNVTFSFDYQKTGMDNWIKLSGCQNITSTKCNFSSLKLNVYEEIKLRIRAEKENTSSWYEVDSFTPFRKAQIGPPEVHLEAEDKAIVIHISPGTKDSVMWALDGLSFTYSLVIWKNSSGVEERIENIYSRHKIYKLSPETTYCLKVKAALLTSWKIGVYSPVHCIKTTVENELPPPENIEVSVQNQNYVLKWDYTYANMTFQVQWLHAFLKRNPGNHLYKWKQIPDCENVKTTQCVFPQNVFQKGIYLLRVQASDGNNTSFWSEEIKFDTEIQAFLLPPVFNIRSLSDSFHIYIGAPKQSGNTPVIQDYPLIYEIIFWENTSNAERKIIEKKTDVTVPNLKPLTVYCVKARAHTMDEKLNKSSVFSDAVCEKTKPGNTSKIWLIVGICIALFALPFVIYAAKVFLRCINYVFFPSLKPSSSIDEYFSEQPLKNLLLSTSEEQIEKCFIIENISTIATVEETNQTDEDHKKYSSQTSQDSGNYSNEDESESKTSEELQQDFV
Sequence of Type I IFN receptor (IFNAR1 and IFNAR2) on HEK-Blue 293 reporter cells (P48551 27-515 limits assumed, chain 2 of 2, further chain): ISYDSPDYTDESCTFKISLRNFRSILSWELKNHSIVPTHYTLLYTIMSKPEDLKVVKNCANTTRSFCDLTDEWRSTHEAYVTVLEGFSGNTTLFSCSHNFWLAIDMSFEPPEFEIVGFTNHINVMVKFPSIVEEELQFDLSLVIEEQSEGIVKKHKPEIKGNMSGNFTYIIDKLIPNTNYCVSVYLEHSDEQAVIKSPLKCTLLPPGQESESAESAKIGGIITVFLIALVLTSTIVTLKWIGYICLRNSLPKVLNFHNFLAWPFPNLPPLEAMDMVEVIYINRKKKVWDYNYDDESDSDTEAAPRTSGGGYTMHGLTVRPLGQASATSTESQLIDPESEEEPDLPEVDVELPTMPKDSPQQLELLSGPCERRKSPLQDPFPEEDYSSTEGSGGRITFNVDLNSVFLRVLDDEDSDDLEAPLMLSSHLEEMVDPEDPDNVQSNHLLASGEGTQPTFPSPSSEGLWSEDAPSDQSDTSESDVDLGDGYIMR
Sequence of Type II IFN receptor (IFNGR1 and IFNGR2) on HEK-Blue 293 reporter cells (P15260 18-489 limits assumed, chain 1 of 2): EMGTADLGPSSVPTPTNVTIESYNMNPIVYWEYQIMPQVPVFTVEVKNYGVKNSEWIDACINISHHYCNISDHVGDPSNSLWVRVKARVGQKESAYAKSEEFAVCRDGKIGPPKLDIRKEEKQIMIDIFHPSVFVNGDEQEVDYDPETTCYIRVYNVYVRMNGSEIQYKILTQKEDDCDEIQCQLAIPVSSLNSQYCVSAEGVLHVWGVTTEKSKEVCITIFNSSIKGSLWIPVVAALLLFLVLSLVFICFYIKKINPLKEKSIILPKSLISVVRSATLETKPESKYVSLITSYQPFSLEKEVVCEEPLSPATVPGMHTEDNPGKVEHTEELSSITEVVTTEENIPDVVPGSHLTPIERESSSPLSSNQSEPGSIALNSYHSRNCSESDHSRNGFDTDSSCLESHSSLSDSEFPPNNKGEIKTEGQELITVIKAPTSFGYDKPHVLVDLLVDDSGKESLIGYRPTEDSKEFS
Sequence of Type II IFN receptor (IFNGR1 and IFNGR2) on HEK-Blue 293 reporter cells (P38484 22-337 limits assumed, chain 2 of 2, further chain): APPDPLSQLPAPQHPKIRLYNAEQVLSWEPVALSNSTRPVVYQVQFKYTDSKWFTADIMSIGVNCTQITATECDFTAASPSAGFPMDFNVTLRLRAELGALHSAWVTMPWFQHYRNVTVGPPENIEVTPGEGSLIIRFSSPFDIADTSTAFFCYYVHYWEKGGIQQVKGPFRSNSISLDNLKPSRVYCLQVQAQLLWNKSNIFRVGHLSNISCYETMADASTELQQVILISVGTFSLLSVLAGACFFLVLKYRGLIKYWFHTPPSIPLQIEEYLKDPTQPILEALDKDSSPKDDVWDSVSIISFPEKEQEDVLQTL

On to “soluble IFNβ (from UniProt P01574 22-187) (ligand)”, for which, in assay [1], the EC50 of SEAP reporter response, HEK-Blue IFN reporter cells came to 0.9 pM and the MHC I (HLA I) expression, MFI by FACS against untreated 293T cells (fold increase) was found to be 9.

As for “soluble IFNγ (from UniProt P01579 24-166) (ligand)”, the EC50 of SEAP reporter response, HEK-Blue IFN reporter cells in assay [2] is 7.1 pM.

Source of the values: patent US20240398902A1.
